Results from the supplement of paper PMC10567573.
± gives the standard deviation.

Test: protein stability index of a GFP-peptide fusion (GPS, HEK-293T) (PSI 1-6); higher = more stable
[1] = treatment: DMSO, c terminus: native
[2] = treatment: MLN4924 1 uM, 8 h, c terminus: native
[3] = treatment: DMSO, c terminus: a fixed tail appended
[4] = treatment: MLN4924 1 uM, 8 h, c terminus: a fixed tail appended
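Also: 24-mer peptide tiles fused after GFP, lentivirally expressed, FACS-sorted into six equal bins by GFP/DsRed ratio, decoded by Illumina sequencing, PSI is the read-weighted mean bin number.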

Sequence | protein stability index [1] | protein stability index [2] | protein stability index [3] | protein stability index [4]
YQGGPPRPPMGMRPPVMSQGGRY [ZNF207] | 2.56 ± 0.27 | 2.84 ± 0.3 | – | –
PVLSGAELEKAHLALIDYLTQKRS [VPS39] | – | – | 3.37 ± 0.26 | 3.38 ± 0.27
ETVKLFICELVMALDYLQNQRIIH [STK32A] | – | – | 3.39 ± 0.55 | 3.08 ± 0.27
DGQYLGVAFRGLKGKKLYPVVSAV [SPSB4] | – | – | 2.08 ± 0.38 | 2.51 ± 0.49
QRLLGEDKFQWLAGLAPPSLFARA [ANKRD9] | – | – | 2.59 ± 0.12 | 2.66 ± 0.28
RRQARREAEADKPRRLGRLKYQAP [NOP53] | – | – | 4.5 ± 0.35 | 4.6 ± 0.24
FSQSAGLIQHQRIHKGEKPYQCSQ [ZSCAN9] | – | – | 3.55 ± 0.071 | 3.68 ± 0.18
YGNGMRKSPEMPVILEVSLEGSHD [RTP4] | – | – | 3.58 ± 0.26 | 3.97 ± 0.41
RAQLHVQGLLHEAGSTDDRIVVPQ [SPNS1] | – | – | 4.15 ± 0.1 | 4.23 ± 0.22
LCEKAKEILTKESNVQEVRCPVTV [PPP2CA] | – | – | 4.11 ± 0.32 | 4.44 ± 0.19
SVSNSTQTSSSSSQSETSSAVSTP [DLC1] | – | – | 5.5 ± 0.1 | 5.43 ± 0.23
DKNLTEREVFNEIYPVWTYSYLVL [SLC19A2] | – | – | 2.81 ± 0.64 | 2.65 ± 0.46
YDRRVIRGNTYALQTGPLLGRPDS [RSPH3] | – | – | 3.29 ± 0.24 | 3.56 ± 0.25
RVGIFLDYEAGTLSFYNVTDRSHI [TRIM39] | – | – | 2.6 ± 0.77 | 2.26 ± 0.35
VGDEFLNCKLATRAKDFLPADIQA [SNX8] | – | – | 2.88 ± 0.26 | 2.92 ± 0.27
VLDSLLLTLLPQLQEAWQQRTPSP [RSAD1] | – | – | 2.85 ± 0.052 | 3.27 ± 0.43
ILFSLPPALDWDSVHVPGPHAMTI [PTPN9] | – | – | 2.66 ± 0.42 | 2.35 ± 0.62
GPAHGPAQEEPWEKKESLGAAQEA [ZNF232] | – | – | 5.6 ± 0.22 | 5.49 ± 0.16
PLTLQSQPKEPQLTCDSAQKCHSI [ZSCAN9] | – | – | 4.36 ± 0.29 | 4.39 ± 0.15
LKLKNKLLQADREHLPVKPDTMEK [DENND6A] | – | – | 4.35 ± 0.34 | 4.33 ± 0.22
EKRPLFLAPDFDRWLDESDAEMEL [HACD3] | – | – | 4.45 ± 0.11 | 4.64 ± 0.068
DLSGLPLQSSKNSYSFQNPSSFDP [RNF180] | – | – | 3.75 ± 0.065 | 3.78 ± 0.074

Sequence | protein stability index [1] | protein stability index [2] | protein stability index [3] | protein stability index [4]
SPPEASPGPPAAPRARRRLGSGPD [PWWP2B] | – | – | 5.22 ± 0.39 | 5.47 ± 0.31
SASEILYSAPPGDPLSTNYSLAPN [NFE2L1] | – | – | 4.16 ± 0.29 | 4.12 ± 0.28
LTKTFQGPAVVCGTPTSHVYMFKN [LYSMD4] | – | – | 2.45 ± 0.22 | 2.63 ± 0.15
AAPFRFVARPVRFPREHQFFEDGD [ZNF511] | – | – | 2.85 ± 0.56 | 3.28 ± 0.62
QAVCGKCSSKRSSYPVMGFEFQVR [WDFY1] | – | – | 2.16 ± 0.23 | 2.34 ± 0.44
LEETEPPLEPEDALSDAEFEGEGD [P3H4] | – | – | 5.49 ± 0.33 | 5.55 ± 0.17
QMSGEPLDKLNFEAINFCRGLGSQ [ACSBG2] | – | – | 3.51 ± 0.49 | 2.89 ± 0.39
SIVAVGFHIFRTLEVNRLMGKLLQ [PKD2L1] | – | – | 3.03 ± 0.56 | 2.55 ± 0.5
PDPPVNFLRQKVLSLPLPDPLKYY [PCMTD2] | – | – | 2.85 ± 0.13 | 2.93 ± 0.079
PIMAKEGQLYAMELQGFWMDIGQP [GMPPB] | – | – | 2.23 ± 0.25 | 2.14 ± 0.31
ILLDGSEYTCDVEKRSRGQVLFDK [EPB41L3] | – | – | 2.86 ± 0.55 | 2.94 ± 0.61
VFGTSLTARVIIPLLKDEGFAVKA [GFOD1] | – | – | 2.7 ± 0.57 | 2.34 ± 0.25
KAPSKLGLIISGPILQEGMDEEKL [DLC1] | – | – | 4.47 ± 0.38 | 4.54 ± 0.36
NRIGNSGVEEIKGHPFFEGVDWEH [STK38L] | – | – | 4.32 ± 0.26 | 4.45 ± 0.21
VPHNGSSEATLPAQMSTLHVSPPP [PDLIM4] | – | – | 4.87 ± 0.17 | 4.73 ± 0.19
RTPLMKAARAGHVCTVQFLISKGA [ANKRD17] | – | – | 2.27 ± 0.37 | 2.46 ± 0.33
TALPPMNEARHNFGIVEIDGMLYI [GAN] | – | – | 2.24 ± 0.31 | 2.08 ± 0.26
VTLKTAVDGPDLEMLTGQERVALA [FKBP8] | – | – | 3.7 ± 0.23 | 3.81 ± 0.24
ELKKAAYDIEVNTRRAQADLAYQL [FLOT1] | – | – | 3.2 ± 0.32 | 3.3 ± 0.32
TSRRARASKKTAQPWVEVVLALRN [MFSD9] | – | – | 2.33 ± 0.12 | 2.58 ± 0.19
QEALDPGPFDQGSPFAQELLDDGQ [ELF3] | – | – | 5.58 ± 0.24 | 5.32 ± 0.14
TGTALRFRVLCTAPAKYTVFDAEG [MOSPD3] | – | – | 2.49 ± 0.95 | 2.54 ± 0.41

Sequence | protein stability index [1] | protein stability index [2] | protein stability index [3] | protein stability index [4]
QDGSESFFFRHGHRGLLTMQLKSP [SPAG8] | – | – | 2.96 ± 0.3 | 3.03 ± 0.35
VKALEDFEDLCDRVFSDEDSELDN [FAM9B] | – | – | 5.34 ± 0.26 | 5.28 ± 0.27
MSYDEISQLRLVCKRMDLVCQRML [FBXO28] | – | – | 2.43 ± 0.34 | 2.25 ± 0.36
REPALDGGFQMHYEKTPFDQLAFI [EID1] | – | – | 2.65 ± 0.33 | 2.43 ± 0.28
TSRDRKDHMVRMHLYPADFRFDKP [ZNF511] | – | – | 2.87 ± 0.31 | 3.22 ± 0.14
LLKTLYNSIKNEKLEWAIDEDELR [PSD2] | – | – | 2.61 ± 0.43 | 2.07 ± 0.32
DSEEDEKMEEDIKEEEEKDHNEAM [PCMTD1] | – | – | 5.81 ± 0.082 | 5.64 ± 0.2
MSGSCAVCVDRVLYLFGGHHSRGN [KLHDC2] | – | – | 2.35 ± 0.55 | 1.75 ± 0.36
VYVSNMTDKLVTPGKYFSAAEYHA [IQUB] | – | – | 2.14 ± 0.47 | 1.96 ± 0.15
AGSCRLGSAGGLGSTLGGSSYSSC [KRT17] | – | – | 2.22 ± 0.3 | 2.27 ± 0.31
RVLSPLHRGPSGHTEASAQRSHMG | – | – | 4.1 ± 0.063 | 4.19 ± 0.16
PPQPGCPAFIIVKLSPLRDRLVVT [ZSWIM9] | – | – | 2.93 ± 1 | 2.99 ± 0.94
PNVLCSMSGKSPVESSLNVKTKKN [FBXO34] | – | – | 4.84 ± 0.29 | 4.9 ± 0.1
ARSRALRRRWCPAGIMLLALVCLL [SPACA3] | – | – | 2.23 ± 0.29 | 2.23 ± 0.19
ELERKLREVMESAVGNSSGSGQNE [FBXO28] | – | – | 4.11 ± 0.19 | 4.24 ± 0.38
KHAGKDPVRDECEERNRFTETREE [FAM9B] | – | – | 5.54 ± 0.2 | 5.49 ± 0.2
CRYATQLQQIQGLIGGLEAQLSEL [KRT15] | – | – | 2.23 ± 0.066 | 2.33 ± 0.18
VHVSESSDDDEEEEENIGCEEKAK [ACBD3] | – | – | 5.55 ± 0.32 | 5.62 ± 0.12
SCLRRRRHPPKVGDDSDLSEGFES [SMG5] | – | – | 5.02 ± 0.32 | 4.93 ± 0.058
LCPCLRSGIGSSQALGPSPPLFG [MYCL] | 2.54 ± 0.84 | 2.11 ± 0.26 | – | –
GFLLRYAVIKSNHSYCRMFLQRGA [ASB7] | – | – | 2.6 ± 0.37 | 2.34 ± 0.38
